Reference: PMC12824264, “Endoglin as a BMP9 Co-Receptor in Vascular Endothelial Cells: Prodomain Displacement and TGFBRII Recruitment” (Nature communications, 2025)

B1: monomeric soluble endoglin (full-length ENG extracellular domain), sENG(M) (domain or fragment, human, UniProt P17813 26-586, looked up)
chain: ETVHCDLQPVGPERGEVTYTTSQVSKGCVAQAPNAILEVHVLFLEFPTGPSQLELTLQASKQNGTWPREVLLVLSVNSSVFLHLQALGIPLHLAYNSSLVTFQEPPGVNTTELPSFPKTQILEWAAERGPITSAAELNDPQSILLRLGQAQGSLSFCMLEASQDMGRTLEWRPRTPALVRGCHLEGVAGHKEAHILRVLPGHSAGPRTVTVKVELSCAPGDLDAVLILQGPPYVSWLIDANHNMQIWTTGEYSFKIFPEKNIRGFKLPDTPQGLLGEARMLNASIVASFVELPLASIVSLHASSCGGRLQTSPAPIQTTPPKDTCSPELLMSLIQTKCADDAMTLVLKKELVAHLKCTITGLTFWDPSCEAEDRGDKFVLRSAYSSCGMQVSASMISNEAVVNILSSSSPQRKKVHCLNMDSLSFQLGLYLSPHFLQASNTIEPGQQSFVQVRVSPSVSEFLLQLDSCHLDLGPEGGTVELIQGRAAKGNCVSLLSPSPEGDPRFSFLLHFYTVPIPKTGTLSCTVALRPKTGSQDQEVHRTVFMRLNIISPDLSGCTSKG
notes: signal peptide in the construct; Expressed as a mixture of dimer and monomer; also called monomeric sENG; sENG-His; source: HEK EBNA, transfected (pCEP4), purified from conditioned medium (HisTrap excel, HiTrap Q HP, Superdex 200)
B2: dimeric soluble endoglin (full-length ENG extracellular domain), sENG(D) (domain or fragment, human, UniProt P17813 26-586, looked up)
chain: ETVHCDLQPVGPERGEVTYTTSQVSKGCVAQAPNAILEVHVLFLEFPTGPSQLELTLQASKQNGTWPREVLLVLSVNSSVFLHLQALGIPLHLAYNSSLVTFQEPPGVNTTELPSFPKTQILEWAAERGPITSAAELNDPQSILLRLGQAQGSLSFCMLEASQDMGRTLEWRPRTPALVRGCHLEGVAGHKEAHILRVLPGHSAGPRTVTVKVELSCAPGDLDAVLILQGPPYVSWLIDANHNMQIWTTGEYSFKIFPEKNIRGFKLPDTPQGLLGEARMLNASIVASFVELPLASIVSLHASSCGGRLQTSPAPIQTTPPKDTCSPELLMSLIQTKCADDAMTLVLKKELVAHLKCTITGLTFWDPSCEAEDRGDKFVLRSAYSSCGMQVSASMISNEAVVNILSSSSPQRKKVHCLNMDSLSFQLGLYLSPHFLQASNTIEPGQQSFVQVRVSPSVSEFLLQLDSCHLDLGPEGGTVELIQGRAAKGNCVSLLSPSPEGDPRFSFLLHFYTVPIPKTGTLSCTVALRPKTGSQDQEVHRTVFMRLNIISPDLSGCTSKG
notes: signal peptide in the construct; Same construct as m1; It stays a dimer on non-reducing SDS-PAGE; also called dimeric sENG; sENG-His; source: HEK EBNA, transfected (pCEP4), purified from conditioned medium (HisTrap excel, HiTrap Q HP, Superdex 200)
B3: BMP9 growth factor domain (GFD) dimer (ligand, human, UniProt Q9UK05 320-429, looked up)
chain: SAGAGSHCQKTSLRVNFEDIGWDSWIIAPKEYEAYECKGGCFFPLADDVTPTKHAIVQTLVHLKFPTKVGKACCVPTKLSPISVLYKDDMGVPTLKYHYEGMSVAECGCR
notes: growth factor domain (GFD) of BMP9, the cut product of the proprotein; also called BMP9 GFD; source: bought: R&D Systems (BMP9 GFD); in the prodomain displacement assays released from pro:BMP9 made in HEK EBNA, purified
B4: BMP10 growth factor domain (GFD) dimer (ligand, human, UniProt O95393 317-424, looked up)
chain: NAKGNYCKRTPLYIDFKEIGWDSWIIAPPGYEAYECRGVCNYPLAEHLTPTKHAIIQALVHLKNSQKASKACCVPTKLEPISILYLDKGVVTYKFKYEGMAVSECGCR
notes: growth factor domain (GFD) of BMP10, the cut product of the proprotein; One molecule is used for the bought GFD and for the GFD freed from pro:BMP10; also called BMP10 GFD; source: bought: R&D Systems (BMP10 GFD); in the prodomain displacement assays released from pro:BMP10 made in HEK EBNA (FURIN co-transfected), purified

What was measured:
Settings in all cases: both partners purified
[1] = molecular target: B4; assay: SEC; S200 10/300 gel filtration; sENG(M) at 6x or sENG(D) at 3x molar excess premixed with pro:BMP9 or pro:BMP10 for 30 min; fractions on non-reducing SDS-PAGE
[2] = molecular target: B3; assay: as above
[3] = molecular target: B4; assay: cross-linking; sENG(M) or sENG(D) with BMP9 or BMP10; crosslinker in PBS pH 7.4-8.0, 45 min at room temperature, quenched with 40 mM Tris; non-reducing SDS-PAGE
[4] = molecular target: B3; assay: as above
[5] = molecular target: B1; assay: native gel or EMSA; pro:BMP9 or pro:BMP10 pre-mixed with sENG(D), sENG(M), BMPRII ECD or ActRIIB ECD at stated molar ratios (from 0.3:1) in TBS, 8 ul, 30 min at room temperature; 10% native PAGE at 4 C; bands cut out and re-run on non-reducing SDS-PAGE
[6] = molecular target: B2; assay: SEC; S200 10/300 gel filtration; sENG(M) at 6x or sENG(D) at 3x molar excess premixed with pro:BMP9 or pro:BMP10 for 30 min; fractions on non-reducing SDS-PAGE
[7] = molecular target: B2; assay: SEC; analytical gel filtration; pro:BMP9 or pro:BMP10 pre-mixed with 0.3-fold sENG(M) or sENG(D)
[8] = molecular target: B1; assay: as above

B1
stoichiometry N [1]: 1 sENG(M) per GFD dimer | stoichiometry N [2]: 1 sENG(M) per GFD dimer

B2
stoichiometry N [3]: 1 sENG(D) per GFD dimer | stoichiometry N [4]: 1 sENG(D) per GFD dimer

B3
binding result [5]: binds | binding result [6]: binds

B4
binding result [7]: binds | binding result [8]: binds
